Assay [1] deals with IgA purified from human plasma (human). Kind of assay: SEC; Superdex 200 10/300 GL; independent runs of plasma IgA, of inactive IgAse1–7 + E540A and of a preincubated mixture of both.
Assay [2] concerns the target T1, synthetic peptide mimicking the IgA1 hinge region, …-NH2 (human).
T1 sequence (peptide, C-terminal amide): VTVPSPVPSTPAR

Where only a bound is given, the exact number is not on record here.

By Kd is commonly meant the equilibrium constant for the complex coming apart.

B1: IgAse1–7 + E540A (domain or fragment)
chain: MASKPDIKVGDYVKMGVYNNASILWRCVSIDNNGPLMLADKIVDTLAYDAKTNDNSNSKSHSRSYKRDDYGSNYWKDSNMRSWLNSTAAEGKVDWLCGNPPKDGYVSGVGAYNEKAGFLNAFSKSEIAAMKTVTQRSLVSHPEYNKGIVDGDANSDLLYYTDISEAVANYDSSYFETTTEKVFLLDVKQANAVWKNLKGYYVAYNNDGMAWPYWLRTPVTDCNHDMRYISSSGQVGRYAPWYSDLGVRPAFYLDSEYFVTTSGSGSQSSPYIGSAPNKQEDDYTISEPAEDANPDWNVSTEQSIQLTLGPWYSNDGKYSNPTIPVYTIQKTRSDTENMVVVVCGEGYTKSQQGKFINDVKRLWQDAMKYEPYRSYADRFNVYALCTASESTFDNGGSTFFDVIVDKYNSPVISNNLHGSQWKNHIFERCIGPEFIEKIHDAHIKKKCDPNTIPSGSEYEPYYYVHDYIAQFAMVVNTKSDFGGAYNNREYGFHYFISPSDSYRASKTFAHAFGHGLLGLGDEYSNGYLLDDKELKSLNLSSVEDPEKIKWRQLLGFRNTYTCRNAYGSKMLVSSYECIMRDTNYQFCEVCRLQGFKRMSQLVKDVDLYVATPEVKEYTGAYSKPSDFTDLETSSYYNYTYNRNDRLLSGNSKSRFNTNMNGKKIELRTVIQNISDKNARQLKFKMWIKHSDGSVATDSSGNPLQTVQTFDIPVWNDKANFWPLGALDHIKSDFNSGLKSCSLIYQIPSDAQLKSGDTVAFQVLDENGNVLADDNTETQRYTTVSIQYKFEDGSEIPNTAGGTFTVPYGTKLDLTPAKTLYDYEFIKVDGLNKPIVSDGTVVTYYYKNKNEEHTHNLTLVAAKAATCTTAGNSAYYTCDGCDKWFADATGSVEITDKTSVKIPAPGHTAGTEWKSDDTNHWHECTVAGCGVIIESTKSAHTAGEWIVDTPATATTAGTKHKECTVCHRVLETQPIPSTGTELKIIAGDNQIYNKASGSDVTITCNGDFAKFTGIKVDGSVVDSSNYTAVSGSTVLTLKASYLGTLTDGSHTITFVYTDGEANANLTVRTAGSGHIHDYGTEWKSNADNHWHECNCGDKKDEAAHSFKWVVDKEATATKKGSKHEECKICGYKRSAVEI
Consider B1, for which the Kd in assay [1] is above 10 µM.

B2: IgAse1–4 (enzyme)
chain: MASKPDIKVGDYVKMGVYNNASILWRCVSIDNNGPLMLADKIVDTLAYDAKTNDNSNSKSHSRSYKRDDYGSNYWKDSNMRSWLNSTAAEGKVDWLCGNPPKDGYVSGVGAYNEKAGFLNAFSKSEIAAMKTVTQRSLVSHPEYNKGIVDGDANSDLLYYTDISEAVANYDSSYFETTTEKVFLLDVKQANAVWKNLKGYYVAYNNDGMAWPYWLRTPVTDCNHDMRYISSSGQVGRYAPWYSDLGVRPAFYLDSEYFVTTSGSGSQSSPYIGSAPNKQEDDYTISEPAEDANPDWNVSTEQSIQLTLGPWYSNDGKYSNPTIPVYTIQKTRSDTENMVVVVCGEGYTKSQQGKFINDVKRLWQDAMKYEPYRSYADRFNVYALCTASESTFDNGGSTFFDVIVDKYNSPVISNNLHGSQWKNHIFERCIGPEFIEKIHDAHIKKKCDPNTIPSGSEYEPYYYVHDYIAQFAMVVNTKSDFGGAYNNREYGFHYFISPSDSYRASKTFAHEFGHGLLGLGDEYSNGYLLDDKELKSLNLSSVEDPEKIKWRQLLGFRNTYTCRNAYGSKMLVSSYECIMRDTNYQFCEVCRLQGFKRMSQLVKDVDLYVATPEVKEYTGAYSKPSDFTDLETSSYYNYTYNRNDRLLSGNSKSRFNTNMNGKKIELRTVIQNISDKNARQLKFKMWIKHSDGSVATDSSGNPLQTVQTFDIPVWNDKANFWPLGALDHIKSDFNSGLKSCSLIYQIPSDAQLKSGDTVAFQVLDENGNVLADDNTETQRYTTVSIQYKFEDGSEIPNTAGGTFTVPYGTKLDLTPAKTLYDYEFIKVDGLNKPIVSDGTVVTYYYKN
Molecule B2 registered a cleavage of the hinge peptide after overnight incubation at 37 °C, MALDI-TOF mass spectrometry in assay [2] below 1%.

The record behind these values is publication PMC12237041.
